Laboratory results: publication PMC12746075, “Twinfilin modulates tissue contractility through uncapping of capping protein in C. elegans” (Development (Cambridge, England), 2025)

Molecular target: T1, biotinylated SNAP-tagged C. elegans heterodimeric capping protein (CAP-1 and CAP-2) (C. elegans, UniProt P34685 1-282; P34686 1-270, biotin (benzylguanine-biotin on the SNAP tag; subunit that carries the tag not stated) | biotin (benzylguanine-biotin on the SNAP tag; subunit that carries the tag not stated))
T1 construct: CAP-1, capping protein subunit of C. elegans; CAP-2, capping protein subunit of C. elegans; only one SNAP tag is meant for the heterodimer; also called CP; SNAP-CP; source: E. coli BL21 DE3, purified (HisTrap, size-exclusion chromatography Superose 6), labeled with benzylguanine-biotin; not shown: His tag (from the HisTrap chromatography)
T1 sequence (looked up) 1: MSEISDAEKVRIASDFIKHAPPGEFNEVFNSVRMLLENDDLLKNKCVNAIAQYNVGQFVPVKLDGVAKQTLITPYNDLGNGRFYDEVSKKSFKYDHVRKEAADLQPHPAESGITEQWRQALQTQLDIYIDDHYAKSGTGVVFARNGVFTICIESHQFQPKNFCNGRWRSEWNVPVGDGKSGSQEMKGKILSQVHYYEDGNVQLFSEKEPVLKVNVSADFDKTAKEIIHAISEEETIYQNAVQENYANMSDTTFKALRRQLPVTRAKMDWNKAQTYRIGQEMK
T1 sequence (looked up) 2: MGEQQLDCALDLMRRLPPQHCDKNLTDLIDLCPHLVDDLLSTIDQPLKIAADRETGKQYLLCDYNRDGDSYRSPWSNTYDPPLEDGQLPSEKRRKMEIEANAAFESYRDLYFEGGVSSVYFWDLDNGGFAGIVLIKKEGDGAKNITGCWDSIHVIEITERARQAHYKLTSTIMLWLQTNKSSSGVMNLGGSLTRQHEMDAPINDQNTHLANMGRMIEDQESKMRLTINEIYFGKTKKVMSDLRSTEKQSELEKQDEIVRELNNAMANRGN
Assay: microfluidics-assisted TIRF microscopy (filament capture and uncapping); biotinylated SNAP-CP anchored to the coverslip surface, preformed Alexa-488-labeled ADP-actin filaments captured; filament detachment monitored in TIRF buffer (10 mM imidazole pH 7.4, 50 mM KCl, 1 mM MgCl2, 1 mM EGTA, 0.2 mM ATP, 10 mM DTT) with and without TWF-2; single-exponential fit
Settings: both partners purified

- fold acceleration of uncapping of CP from barbed ends (against buffer): > 90 fold
B1: C. elegans TWF-2 (6×His-tagged), recombinant (natural protein, UniProt Q20173 1-333, looked up)
chain: MACQTGIRANAALRNALNLGKQAKLRLIKIVVNNEEMTPNYEFAGTANWRDDWRACLPDCVDAYEPCFILFRLNTITEWVLITFVDDRAPVREKMLLAATCATFKSEFGQCYIEHEKHVTDLKDLTLNAFEAWLKAKTELGPMSEVERELHNAQQERAAIAHAGPQHMKGVAFPVDRNAEEALRQLASQKLSFVQLSVDTLNEAIKLEGTLESLEPSQLASKVPRDKPRYTFYNFDHTWEGVPQQCTLFIYSLPSSGSSIKERMLYSSCKGPFLSAAQNQYGVVITNKMEVDARDDLSEKALLEVIHPLPVEAPKQFSRPAPPRAGPRRITKV
notes: TWF-2, the sole twinfilin of C. elegans, recombinant; also called twinfilin; source: E. coli BL21 (pRare), purified (Ni-NTA, size-exclusion chromatography Superdex 75 Increase)
